This is an account of results in article PMC6730670.

The test has as its target Yn-ABHD5 (UniProt Q9DBL9). The test can be described thus: split reporter.

Sequence of Yn-ABHD5 (Q9DBL9 whole entry): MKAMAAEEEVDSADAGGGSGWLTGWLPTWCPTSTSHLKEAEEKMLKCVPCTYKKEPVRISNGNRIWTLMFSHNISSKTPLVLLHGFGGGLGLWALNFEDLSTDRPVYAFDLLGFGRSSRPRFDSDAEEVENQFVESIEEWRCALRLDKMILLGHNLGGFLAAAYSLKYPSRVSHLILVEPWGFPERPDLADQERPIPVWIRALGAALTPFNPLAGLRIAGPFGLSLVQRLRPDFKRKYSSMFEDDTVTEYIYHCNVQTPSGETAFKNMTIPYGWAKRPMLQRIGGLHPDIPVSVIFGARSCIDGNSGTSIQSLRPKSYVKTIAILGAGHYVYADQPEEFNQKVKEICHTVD

Consider “PNPLA3-Yc (from UniProt Q91WW7 1-413) (natural protein)”, for which the percent of transfected cells with BiFC is greater than 90%.
